Consider two molecules from CN111234017A (NANJING YOUMAI BIOTECHNOLOGY CO LTD, dated 2020).

Assay [1] has as its target T1, human PD-L1 expressed on cells (CT26 transfected with human PD-L1, HCC827, Raji-PD-L1, CHO-PDL1-OKT3) (human, UniProt Q9NZQ7 19-290).
T1 construct: whole, on cells; For CT26 the plasmid encodes human PD-L1 and HCC827 is a human tumour line; also called 过表达PD-L1的CT26细胞; HCC827细胞
The assay is described as follows: flow cytometry competition: inhibition of human PD-1-Fc binding to Raji-PD-L1 cells. (In general: A flow cytometer gives signals particle by particle.)

The target in assay [2] is T1, human PD-L1 expressed on cells (CT26 …). The assay is described as follows: flow cytometry on HCC827 cells naturally overexpressing PD-L1.
Assay [3] addresses T2, 人PD-L1蛋白 (human PD-L1 protein) (human, UniProt Q9NZQ7 19-238, limits assumed).
T2 construct: also called CD274; B7-H1
The assay is described as follows: ELISA, human PD-L1 protein coated at 1 μg/mL, HRP secondary antibody, OD450. (In general: An ELISA detects its analyte on a solid surface through an enzyme-linked reagent.)

The target of assay [4] is T2, 人PD-L1蛋白 (human PD-L1 protein). Put plainly: SPR, Biacore 8K, antibody captured on protein A sensor chip, PD-L1 protein as analyte.
Assay [5] addresses T1, human PD-L1 expressed on cells (CT26 …). The assay is described as follows: flow cytometry on CT26 cells transfected with human PD-L1.
Assay [6] shares this target. Put plainly: cell-based or functional assay.
Assay [7] deals with 食蟹猴PD-L1蛋白 (cynomolgus monkey PD-L1 protein) (cynomolgus monkey). Put plainly: ELISA on coated cynomolgus PD-L1 protein.

T1 sequence (Q9NZQ7 19-290): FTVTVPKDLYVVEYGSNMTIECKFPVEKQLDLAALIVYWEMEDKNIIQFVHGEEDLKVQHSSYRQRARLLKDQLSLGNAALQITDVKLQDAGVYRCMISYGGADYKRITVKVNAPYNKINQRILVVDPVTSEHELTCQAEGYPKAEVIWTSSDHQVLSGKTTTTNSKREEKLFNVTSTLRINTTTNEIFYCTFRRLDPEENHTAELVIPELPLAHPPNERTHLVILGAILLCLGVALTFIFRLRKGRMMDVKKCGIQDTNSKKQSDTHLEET
T2 sequence (Q9NZQ7 19-238 limits assumed): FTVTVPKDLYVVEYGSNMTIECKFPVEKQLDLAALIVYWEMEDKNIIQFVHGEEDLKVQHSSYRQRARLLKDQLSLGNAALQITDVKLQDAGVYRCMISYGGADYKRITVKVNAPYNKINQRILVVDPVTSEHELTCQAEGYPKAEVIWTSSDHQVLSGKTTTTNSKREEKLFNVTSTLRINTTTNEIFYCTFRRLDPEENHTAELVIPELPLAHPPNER

B1: 人源化抗体MT02-C4 (humanized anti-human PD-L1 antibody MT02-C4) (antibody, human IgG1, kappa, V domains shown)
VH: QVQLQESGPGLVKPSETLSLTCTVSGDSITSGYWSWIRQPPGKGLEYMGYISYTGSTYYSPSLIRRMTISRDTSKNQFSLKLSSVTAADTAVYYCAKYENWKEGYFDIWGQGTLVTVSS
VL: DIQMTQSPSSLSASVGDRVTITCKASQNVGINVAWYQQKPGKAPKALIYSATQRYSGVPSKFSGSGSGTDFTLTISSLQPEDFATYFCQQYYGYPLTFGQGTRLEIKR
notes: Humanized (CDR grafting with back mutations), human IgG1 / kappa
With B1, the IC50 (as a rule, the concentration that gives 50% inhibition) in assay [1] is 0.298 µg/mL. Further, the half-maximal effective concentration (EC50) (in general, the concentration needed to bring the measured effect to its halfway point) came out at 0.0864 µg/mL in assay [2], 0.0651 µg/mL in assay [3] and 0.378 µg/mL in assay [5]. Besides, binding in assay [4] was put at a Kd of 0.4 nM. In assay [6], the “Jurkat-PD-1/NFAT-luciferase报告基因活性 (luciferase bioluminescence), EC50” value amounted to 0.0838 µg/mL.

B2: 人-鼠嵌合抗体MT02-L4 (human-mouse chimeric anti-human PD-L1 antibody MT02-L4) (antibody, human IgG1, kappa, V domains shown)
VH: EVQLQESGPSLVKPSQTLSLTCSVTGDSITSGYWSWIRKFPGNNLDYMGYISYTGSTYYSPSLIRRMSINRDTSKNQFYLQLNSVTTEDTATYYCAKYENWKEGYFDIWGAGTTVTVSS
VL: DIVMTRSQKFMSTSVGDRVSVTCKASQNVGINVAWYQQKAGQSPKALIHSATQRYSGVPDRFTGGGSGTDFTLTIDDVQSADLAEYFCQQYYGYPLTFGAGTRLELKR
notes: Mouse 13B8 variable regions joined to the human IgG1 heavy constant region and the kappa constant region
B2 gave an IC50 in assay [1] of 0.481 µg/mL. Moreover, the EC50 in assay [2] came out at 0.0445 µg/mL; in assay [3], 0.216 µg/mL; in assay [7], 0.0422 µg/mL; in assay [5], 0.209 µg/mL.
